Measured values taken from paper PMC4405707.

B1: GluA2i: N385D (protein)
parent chain: MQKIMHISVLLSPVLWGLIFGVSSNSIQIGGLFPRGADQEYSAFRVGMVQFSTSEFRLTPHIDNLEVANSFAVTNAFCSQFSRGVYAIFGFYDKKSVNTITSFCGTLHVSFITPSFPTDGTHPFVIQMRPDLKGALLSLIEYYQWDKFAYLYDSDRGLSTLQAVLDSAAEKKWQVTAINVGNINNDKKDETYRSLFQDLELKKERRVILDCERDKVNDIVDQVITIGKHVKGYHYIIANLGFTDGDLLKIQFGGANVSGFQIVDYDDSLVSKFIERWSTLEEKEYPGAHTATIKYTSALTYDAVQVMTEAFRNLRKQRIEISRRGNAGDCLANPAVPWGQGVEIERALKQVQVEGLSGNIKFDQNGKRINYTINIMELKTNGPRKIGYWSEVDKMVVTLTELPSGNDTSGLENKTVVVTTILESPYVMMKKNHEMLEGNERYEGYCVDLAAEIAKHCGFKYKLTIVGDGKYGARDADTKIWNGMVGELVYGKADIAIAPLTITLVREEVIDFSKPFMSLGISIMIKKPQKSKPGVFSFLDPLAYEIWMCIVFAYIGVSVVLFLVSRFSPYEWHTEEFEDGRETQSSESTNEFGIFNSLWFSLGAFMQQGCDISPRSLSGRIVGGVWWFFTLIIISSYTANLAAFLTVERMVSPIESAEDLSKQTEIAYGTLDSGSTKEFFRRSKIAVFDKMWTYMRSAEPSVFVRTTAEGVARVRKSKGKYAYLLESTMNEYIEQRKPCDTMKVGGNLDSKGYGIATPKGSSLGTPVNLAVLKLSEQGVLDKLKNKWWYDKGECGAKDSGSKEKTSALSLSNVAGVFYILVGGLGLAMLVALIEFCYKSRAEAKRMKVAKNPQNINPSSSQNSQNFATYKEGYNVYGIESVKI
B2: GluA2i: N392Q (protein)
parent chain: B1 parent chain

Key:
[1] = outside-out patch, steady state-to-peak ratio; conditions: glycan lost; control: GluA2i WT + γ-2
[2] = outside-out patch, 10 mM glutamate, τw,des; conditions: glycan lost; control: GluA2i WT + γ-2

Row | Protein | other: steady-state channel current [1] | other: channel desensitisation kinetics [2]
1 | B1 | increases | no change
2 | B2 | increases | no change
